Data from patent publication US20240010724A1 (Amgen, published 2024).
Positions count from the first letter of the chain named.

Tests used:
Experiment in all cases: flow cytometry, transfected 293T cells
[1] = molecular target: T1, muCDH19(44-247)::huCDH19(250-364)::muCDH19(363-770) (human/mouse chimera)
T1 construct: also called Hu EC3

[2] = molecular target: T2, muCDH19(44-139)::huCDH19(142-364)::muCDH19(363-770) (human/mouse chimera)
T2 construct: also called Hu EC2-3

[3] = molecular target: T3, huCDH19(44-249)::muCDH19(248-770) (human/mouse chimera)
T3 construct: also called Hu EC1-2

[4] = molecular target: T4, huCDH19(44-141)::muCDH19(140-770) (human/mouse chimera)
T4 construct: also called Hu EC1

[5] = molecular target: T5, muCDH19(44-362)::huCDH19(365-772) (human/mouse chimera)
T5 construct: also called Hu EC4-5
T5 chain: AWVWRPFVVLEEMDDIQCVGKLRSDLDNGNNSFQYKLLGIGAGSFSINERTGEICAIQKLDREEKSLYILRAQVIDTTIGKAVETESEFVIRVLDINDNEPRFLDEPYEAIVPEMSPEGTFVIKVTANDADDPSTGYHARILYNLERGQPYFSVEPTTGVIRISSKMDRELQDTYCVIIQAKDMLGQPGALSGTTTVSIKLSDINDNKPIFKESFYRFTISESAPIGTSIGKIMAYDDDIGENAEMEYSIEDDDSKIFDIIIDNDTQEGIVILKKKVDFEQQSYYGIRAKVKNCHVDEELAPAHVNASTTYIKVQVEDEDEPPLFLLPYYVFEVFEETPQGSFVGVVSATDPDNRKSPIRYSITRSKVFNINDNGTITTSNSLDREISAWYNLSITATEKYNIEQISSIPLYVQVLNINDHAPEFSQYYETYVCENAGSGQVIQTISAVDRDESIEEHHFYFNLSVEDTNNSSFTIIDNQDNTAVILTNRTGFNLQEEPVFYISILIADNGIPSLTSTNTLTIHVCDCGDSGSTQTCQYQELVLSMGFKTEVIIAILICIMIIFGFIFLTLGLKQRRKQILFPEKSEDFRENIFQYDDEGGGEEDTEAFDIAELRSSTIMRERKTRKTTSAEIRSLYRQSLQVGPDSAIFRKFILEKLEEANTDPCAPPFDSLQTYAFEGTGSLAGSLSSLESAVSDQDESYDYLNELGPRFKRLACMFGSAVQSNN

[6] = molecular target: T6, muCDH19(44-461)::huCDH19(464-772) (human/mouse chimera)
T6 construct: also called Hu EC5
T6 chain: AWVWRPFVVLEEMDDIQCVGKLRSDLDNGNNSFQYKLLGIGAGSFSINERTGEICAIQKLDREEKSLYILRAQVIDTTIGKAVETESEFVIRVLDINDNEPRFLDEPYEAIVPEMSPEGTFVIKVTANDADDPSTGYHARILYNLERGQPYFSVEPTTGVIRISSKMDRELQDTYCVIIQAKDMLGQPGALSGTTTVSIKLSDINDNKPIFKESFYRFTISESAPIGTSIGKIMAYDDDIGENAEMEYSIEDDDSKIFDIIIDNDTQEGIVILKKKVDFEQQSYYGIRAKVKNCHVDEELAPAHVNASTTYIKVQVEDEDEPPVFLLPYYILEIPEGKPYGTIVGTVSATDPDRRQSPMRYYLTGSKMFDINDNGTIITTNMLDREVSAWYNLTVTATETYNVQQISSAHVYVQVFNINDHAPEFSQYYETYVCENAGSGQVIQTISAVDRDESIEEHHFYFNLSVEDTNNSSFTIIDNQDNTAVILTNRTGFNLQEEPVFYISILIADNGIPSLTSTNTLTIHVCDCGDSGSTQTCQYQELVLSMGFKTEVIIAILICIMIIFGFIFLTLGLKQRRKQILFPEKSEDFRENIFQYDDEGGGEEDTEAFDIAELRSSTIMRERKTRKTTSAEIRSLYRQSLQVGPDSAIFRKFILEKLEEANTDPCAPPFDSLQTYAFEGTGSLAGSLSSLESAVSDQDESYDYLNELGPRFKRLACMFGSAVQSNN

[7] = molecular target: T7, muCDH19(44-139)::huCDH19(142-249):muCDH19(248-770) (human/mouse chimera)
T7 construct: also called Hu EC2
T7 chain: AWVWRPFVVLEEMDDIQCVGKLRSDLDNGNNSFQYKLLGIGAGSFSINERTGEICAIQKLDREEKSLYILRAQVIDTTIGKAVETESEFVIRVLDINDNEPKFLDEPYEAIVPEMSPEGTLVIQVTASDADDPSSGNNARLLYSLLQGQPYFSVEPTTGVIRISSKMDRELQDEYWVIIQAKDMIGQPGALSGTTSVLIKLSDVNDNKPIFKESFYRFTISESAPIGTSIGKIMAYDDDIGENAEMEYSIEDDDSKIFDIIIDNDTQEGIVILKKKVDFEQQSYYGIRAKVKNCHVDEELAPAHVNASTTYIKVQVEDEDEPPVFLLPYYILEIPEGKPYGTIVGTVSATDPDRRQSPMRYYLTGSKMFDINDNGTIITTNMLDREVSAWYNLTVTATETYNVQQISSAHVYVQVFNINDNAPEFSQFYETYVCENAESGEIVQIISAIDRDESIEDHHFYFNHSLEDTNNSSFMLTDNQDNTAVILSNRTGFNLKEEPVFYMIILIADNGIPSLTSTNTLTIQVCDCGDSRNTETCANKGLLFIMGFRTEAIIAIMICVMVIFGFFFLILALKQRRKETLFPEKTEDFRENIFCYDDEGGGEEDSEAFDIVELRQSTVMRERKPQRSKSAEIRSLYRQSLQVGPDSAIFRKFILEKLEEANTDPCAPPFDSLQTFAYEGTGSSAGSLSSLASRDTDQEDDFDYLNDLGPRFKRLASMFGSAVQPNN

[8] = molecular target: T8, muCDH19(44-770) (mouse)
T8 construct: also called Mu EC1-5
T8 chain: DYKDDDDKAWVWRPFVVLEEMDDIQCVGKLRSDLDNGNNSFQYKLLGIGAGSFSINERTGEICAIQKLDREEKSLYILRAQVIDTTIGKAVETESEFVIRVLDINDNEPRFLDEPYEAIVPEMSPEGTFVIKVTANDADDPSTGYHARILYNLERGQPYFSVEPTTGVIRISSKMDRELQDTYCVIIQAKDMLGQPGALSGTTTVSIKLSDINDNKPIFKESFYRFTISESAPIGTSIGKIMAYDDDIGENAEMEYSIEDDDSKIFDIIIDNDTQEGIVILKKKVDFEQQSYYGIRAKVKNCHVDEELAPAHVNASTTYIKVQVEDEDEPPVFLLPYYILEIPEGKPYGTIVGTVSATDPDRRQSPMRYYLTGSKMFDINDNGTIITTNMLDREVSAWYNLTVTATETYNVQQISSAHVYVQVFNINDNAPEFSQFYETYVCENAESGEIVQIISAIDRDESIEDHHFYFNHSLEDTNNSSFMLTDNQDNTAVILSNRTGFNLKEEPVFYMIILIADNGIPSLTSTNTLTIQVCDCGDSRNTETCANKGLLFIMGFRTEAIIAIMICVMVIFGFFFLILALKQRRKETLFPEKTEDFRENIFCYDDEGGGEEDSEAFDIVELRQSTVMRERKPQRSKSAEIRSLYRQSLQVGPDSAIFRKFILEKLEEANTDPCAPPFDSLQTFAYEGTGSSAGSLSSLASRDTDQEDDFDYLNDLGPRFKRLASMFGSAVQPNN

[9] = molecular target: T9, huCDH19(44-772) (human, UniProt Q9H159 44-772)
T9 construct: also called Hu EC1-5

Measured: binding result

B1: anti-CDH19 antibody 13590 (clone 4B10) (antibody, V domains shown)
VH: QVQLVESGGGVVQPGRSLRLSCAASGFTFSSYDMHWVRQAPGKGLEWVAVISYDGTNEYYADSVKGRFTISRDTSKNTLYLQMNSLRAEDTAVYYCARERYFDWSFDYWGQGTLVSVSS
VL: EIVLTQSPGTLSLSPGERATLSCRASQSVSNTYLAWYHQRPGQAPRLLIYGASSRATGIPDRFSGSGSGTDFALTISSLEPEDFAVYYCQQYSNSWTFGQGTKVEIKR
notes: fully human XenoMouse monoclonal antibody; bin 4
binds: [1] | [2]

B2: anti-CDH19 antibody 13589 (clone 4A9) (antibody, human IgG1, lambda, V domains shown)
VH: QVQLQESGPGLVKPSETLSLTCTVSGGSISGYYWSWIRQPPGKGLEWFAYFSYSGSTNYNPSLKSRVTLSVDTSKNQFSLKLSSVTAADTAVYYCARNWAFHFDFWGQGTLVTVSS
VL: QSVLTQPPSVSGAPGQRVTISCTGSSSNIGTGYAVHWYQQFPGTAPKLLIYGNNNRPSGVPDRFSGSKSGTSASLAITGLQAEDEADYYCQSYDSRLSGWVFGGGTKLTVLG
notes: fully human XenoMouse monoclonal antibody; bin 1; also called Alexa647-labelled 4A9
binds: [3] | [4]

B3: anti-CDH19 antibody 14039 (antibody, human IgG1, lambda, V domains shown)
VH: QVQLVESGGGVVQPGGSLRLSCAASGFTFSSYGMHWVRQAPGKGLEWVAFIWYEGSNKYYAESVKDRFTISRDNSKNTLYLQMNSLRAEDTAVYYCARRAGIIGTIGYYYGMDVWGQGTTVTVSS
VL: SYELTQPPSVSVSPGQTASITCSGDRLGEKYTSWYQQRPGQSPLLVIYQDTKRPSGIPERFSGSNSGNTATLTISGTQAMDEADYYCQAWESSTVVFGGGTKLTVLG
not listed: [8] | [9]
binds: all other assays above

B4: anti-CDH19 antibody 14304 (antibody, V domains shown)
VH: B3 VH with E54D, E62D, N84K
VL: B3 VL with T32V, R38K, L44I, T51N, R53W, E91D
binds: all assays above

B5: anti-CDH19 antibody 13880 (clone 25F8) (antibody, human IgG1, lambda, V domains shown)
VH: QVQLVQSGAEVKKPGASVKVSCKASGYTFTSYYIHWVRQAPGQGLEWMGIINPSGGSTRYAQKFQGRVTMTRDTSTSTVFMELSSLRSEDTAVYYCARGGIQLWLHFDYWGQGTLVTVSS
VL: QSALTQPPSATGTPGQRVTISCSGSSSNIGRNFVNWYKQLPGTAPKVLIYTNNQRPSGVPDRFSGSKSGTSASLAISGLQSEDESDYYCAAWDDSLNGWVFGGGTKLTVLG
notes: fully human XenoMouse monoclonal antibody; bin 2
binds: [3] | [4]

B6: anti-CDH19 antibody 13882 (clone 26D1) (antibody, human IgG1, lambda, V domains shown)
VH: B5 VH with G26R, I34M, H35S, N52H, S57D, R59T, R72G, F80Y, Q102K
VL: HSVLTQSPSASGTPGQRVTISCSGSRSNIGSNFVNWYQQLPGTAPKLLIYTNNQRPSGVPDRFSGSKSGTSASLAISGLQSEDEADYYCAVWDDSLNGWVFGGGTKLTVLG
notes: as for B5
binds: [3] | [4]
